Data: patent CN116041526A

Target: 重组蛋白SUMO-IgT CH1-CH2 (recombinant grass carp IgT heavy chain constant region CH1-CH2 domains fused to SUMO, from E. coli) (草鱼 (Ctenopharyngodon idella))
Assay: titre of the antibody purified from ascites; assay not given, taken as ELISA on SUMO-IgT CH1-CH2

B1: 鼠抗草鱼IgT单克隆抗体 (mouse anti-grass carp IgT monoclonal antibody, secreted by hybridoma cell line IgT-6H6G11, CCTCC NO: C202288) (antibody, IgG2a, V domains shown)
VH: QVQLVETGGGLVRPGNSLKLSCVTSGFTFSNYRMHWLRQPPGKRLEWIAVITVKSDNYRARYAESVKGRFTISRDDSKSSVYLQMNRLREEDTATYFCSREGPYYGNWVAMDYWGQGTSVTVSS
VL: DVVLTQSPATLSVTPGDRVSLSCRASQSISNYLHWYQQKSHESPRLLIKYASQSISGIPSRFSGSGSGTGFTLSINSVETEDFGMYFCQQSHSWPYTFGGGTKLEIK
效价 (titre) (dilution (1:x)): 64000
